Reference: the supplement of paper PMC11316812
± gives the standard deviation of the averaged measurements.

What was measured:
hTERT-HMEC = experiment: percentage of EdU-negative (G0-arrested) nuclei per well, 72 h; higher = more G0 arrest; conditions: reference: sequence is the full UniProt precursor, the tested protein was the secreted form or ectodomain
MCF7 = experiment: as above; conditions: reference: sequence is the full UniProt precursor, the tested protein was the secreted form or ectodomain
[1] = protein concentration 0.01525 µM
[2] = protein concentration 0.1525 µM
[3] = protein concentration 0.0225 µM
[4] = protein concentration 0.0229925 µM
[5] = protein concentration 0.229925 µM
[6] = protein concentration 0.01075 µM
[7] = protein concentration 0.1075 µM
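Also: secreted proteins added to cultured cells, EdU pulse at the end, nuclei found by Hoechst imaging, EdU status from nuclear versus surrounding ring intensity ratio, PBS as neutral control.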

For “MSGPGTAAVALLPAVLLALLAPWAGRGGAAAPTAPNGTLEAELERRWESLVALSLARLPVAAQPKEAAVQSGAGDYLLGIKRLRRLYCNVGIGFHLQALPDGRIGGAHADTRDSLLELSPVERGVVSIFGVASRFFVAMSSKGKLYGSPFFTDECTFKEILLPNNYNAYESYKYPGMFIALSKNGKTKKGNRVSPTMKVTHFLPRL”, the “percentage of EdU-negative” value (hTERT-HMEC; [1]) was 5.05 ± 0.36%, the “percentage of EdU-negative” value (hTERT-HMEC; [2]) was 5.7993 ± 0.0024% and the “percentage of EdU-negative” value (MCF7; [1]) was 27.2 ± 2.4%. The “percentage of EdU-negative” value (MCF7; [2]) was 28.58 ± 0.13%.

In the case of “MRLLPLLRTVLWAAFLGSPLRGGSSLRHVVYWNSSNPRLLRGDAVVELGLNDYLDIVCPHYEGPGPPEGPETFALYMVDWPGYESCQAEGPRAYKRWVCSLPFGHVQFSEKIQRFTPFSLGFEFLPGETYYYISVPTPESSGQCLRLQVSVCCKERKSESAHPVGSPGESGTSGWRGGDTPSPLCLLLLLLLLILRLLRIL”, the “percentage of EdU-negative” value (hTERT-HMEC; [3]) is reported as 5.7 ± 0.081%, the “percentage of EdU-negative” value (hTERT-HMEC; protein concentration 0.225 µM) is reported as 8.57 ± 0.56% and the “percentage of EdU-negative” value (MCF7; [3]) is reported as 27.2 ± 2.5%. The “percentage of EdU-negative” value (MCF7; protein concentration 0.225 µM) was 25.7 ± 0.36%.

“MARPNKFLLWFCCFAWLCFPISLGSQASGGEAQIAASAELESGAMPWSLLQHIDERDRAGLLPALFKVLSVGRGGSPRLQPDSRALHYMKKLYKTYATKEGIPKSNRSHLYNTVRLFTPCTRHKQAPGDQVTGILPSVELLFNLDRITTVEHLLKSVLLYNINNSVSFSSAVKCVCNLMIKEPKSSSRTLGRAPYSFTFNSQFEFGKKHKWIQIDVTSLLQPLVASNKRSIHMSINFTCMKDQLEHPSAQNGLFNMTLVSPSLILYLNDTSAQAYHSWYSLHYKRRPSQGPDQERSLSAYPVGEEAAEDGRSSHHRHRRGQETVSSELKKPLGPASFNLSEYFRQFLLPQNECELHDFRLSFSQLKWDNWIVAPHRYNPRYCKGDCPRAVGHRYGSPVHTMVQNIIYEKLDSSVPRPSCVPAKYSPLSVLTIEPDGSIAYKEYEDMIATKCTCR” was tested, and the “percentage of EdU-negative” value (hTERT-HMEC; [4]) was 4.1 ± 0.078%, the “percentage of EdU-negative” value (hTERT-HMEC; [5]) was 4.84 ± 1.5% and the “percentage of EdU-negative” value (MCF7; [4]) was 24.683 ± 0.017%. The “percentage of EdU-negative” value (MCF7; [5]) was 29.8 ± 2.2%.

For “MVPEEEPQDREKGLWWFQLKVWSMAVVSILLLSVCFTVSSVVPHNFMYSKTVKRLSKLREYQQYHPSLTCVMEGKDIEDWSCCPTPWTSFQSSCYFISTGMQSWTKSQKNCSVMGADLVVINTREEQDFIIQNLKRNSSYFLGLSDPGGRRHWQWVDQTPYNENVTFWHSGEPNNLDERCAIINFRSSEEWGWNDIHCHVPQKSICKMKKIYI [Q8WTT0]”, the “percentage of EdU-negative” value (hTERT-HMEC; [3]) was 4.78 ± 0.84%, the “percentage of EdU-negative” value (hTERT-HMEC; protein concentration 0.225 µM) was 4.64 ± 1% and the “percentage of EdU-negative” value (MCF7; [3]) was 27.712 ± 0.0085%. The “percentage of EdU-negative” value (MCF7; protein concentration 0.225 µM) was 26.5 ± 0.9%.

For “MDPRLPAWALVLLGPALVFALGPAPTPEMREKLCGHHFVRALVRVCGGPRWSTEARRPATGGDRELLQWLERRHLLHGLVADSNLTLGPGLQPLPQTSHHHRHHRAAATNPARYCCLSGCTQQDLLTLCPY”, the “percentage of EdU-negative” value (hTERT-HMEC; [3]) was 6.04 ± 0.67%, the “percentage of EdU-negative” value (hTERT-HMEC; protein concentration 0.225 µM) was 5.1 ± 0.54% and the “percentage of EdU-negative” value (MCF7; [3]) was 27 ± 2.5%. The “percentage of EdU-negative” value (MCF7; protein concentration 0.225 µM) was 26.9 ± 2.5%.

In the case of “MLLLVTSLLLCELPHPAFLLIPEKSDLRTVAPASSLNVRFDSRTMNLSWDCQENTTFSKCFLTDKKNRVVEPRLSNNECSCTFREICLHEGVTFEVHVNTSQRGFQQKLLYPNSGREGTAAQNFSCFIYNADLMNCTWARGPTAPRDVQYFLYIRNSKRRREIRCPYYIQDSGTHVGCHLDNLSGLTSRNYFLVNGTSREIGIQFFDSLLDTKKIERFNPPSNVTVRCNTTHCLVRWKQPRTYQKLSYLDFQYQLDVHRKNTQPGTENLLINVSGDLENRYNFPSSEPRAKHSVKIRAADVRILNWSSWSEAIEFGSDDGNLGSVYIYVLLIVGTLVCGIVLGFLFKRFLRIQRLFPPVPQIKDKLNDNHEVEDEIIWEEFTPEEGKGYREEVLTVKEIT”, the “percentage of EdU-negative” value (hTERT-HMEC; [3]) is reported as 5.11 ± 0.35%, the “percentage of EdU-negative” value (hTERT-HMEC; protein concentration 0.225 µM) is reported as 4.81 ± 0.71% and the “percentage of EdU-negative” value (MCF7; [3]) is reported as 23.5 ± 1.9%. For the same sequence, the “percentage of EdU-negative” value (MCF7; protein concentration 0.225 µM) was 25.3 ± 2.3%.

For “MVPRIFAPAYVSVCLLLLCPREVIAPAGSEPWLCQPAPRCGDKIYNPLEQCCYNDAIVSLSETRQCGPPCTFWPCFELCCLDSFGLTNDFVVKLKVQGVNSQCHSSPISSKCESRRRFP [Q6UWQ7]”, the “percentage of EdU-negative” value (hTERT-HMEC; [6]) was 5.54 ± 1.2%, the “percentage of EdU-negative” value (hTERT-HMEC; [7]) was 6.18 ± 1.3% and the “percentage of EdU-negative” value (MCF7; [6]) was 24.7 ± 0.71%. The “percentage of EdU-negative” value (MCF7; [7]) was 25.6 ± 1.1%.
